± gives the standard error. Fewer inactive variants are shown than the library holds.
B1: glmS ribozyme (parent)
chain: AUAAAAGCGCCAGAACUACAGAAAUGUAGUUGACGAGGAGGAGGUUUAUCGAAUUUUCGGCGGAUGCCUCCAAA

Experiments:
Settings in all cases: with glucosamine-6-phosphate
[1] = variants of: B1; test: self-cleavage kobs at 40 uM GlcN6P; higher = faster cleavage; RNA array
Summary of the method: (§1)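 In situ transcription by E. coli RNA polymerase produced barcoded ribozyme variants on sequenced MiSeq chips, and a hybridised Cy3 probe tracked them at 37 °C. Glucosamine-6-phosphate was flowed in at 40 μM to 10 mM in HEPES/KCl/Mg(OAc)2 buffer. kcat and KM were taken from weighted Michaelis–Menten fits of kobs values from exponential decay fits.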

[2] = variants of: B1; test: self-cleavage kobs at 10000 uM GlcN6P; higher = faster cleavage; RNA array
Summary of the method: as §1

[3] = variants of: B1; test: self-cleavage kobs at 640 uM GlcN6P; higher = faster cleavage; RNA array
Summary of the method: as §1

[4] = variants of: B1; test: self-cleavage kobs at 2500 uM GlcN6P; higher = faster cleavage; RNA array
Summary of the method: as §1

[5] = variants of: B1; test: self-cleavage kobs at 160 uM GlcN6P; higher = faster cleavage; RNA array
Summary of the method: as §1

| Variant | self-cleavage kobs at 40 uM GlcN6P [1] [s⁻¹] | self-cleavage kobs at 10000 uM GlcN6P [2] [s⁻¹] | self-cleavage kobs at 640 uM GlcN6P [3] [s⁻¹] | self-cleavage kobs at 2500 uM GlcN6P [4] [s⁻¹] | self-cleavage kobs at 160 uM GlcN6P [5] [s⁻¹] |
| --- | --- | --- | --- | --- | --- |
| C11A C61A C67A | 0.000153 ± 4.5e-05 | 7.62e-05 ± 2.5e-05 |  |  |  |
| G41A G60A G62U C70A | < 1e-05 |  |  |  |  |
| G35A U47A G51U | < 1e-05 |  |  |  |  |
| C34A U56C | < 1e-05 | < 1e-05 | < 1e-05 | < 1e-05 |  |
| G9A C10G C68U | < 1e-05 |  |  |  |  |
| C10A A39U U49C | < 1e-05 | < 1e-05 |  |  |  |
| A39G C50G C58A | 0.000142 ± 4.6e-05 |  |  |  |  |
| A15G U30G | 0.000265 ± 4.2e-05 | 0.00934 ± 0.002 | 0.00124 ± 0.00035 |  | 0.000476 ± 0.00016 |
| C11A C34G | < 1e-05 | < 1e-05 | < 1e-05 |  | < 1e-05 |
| A6U G13C C16A U45G | < 1e-05 |  |  |  |  |
| A14G A33G G59U | < 1e-05 |  |  |  |  |
| C8G A36G | < 1e-05 | < 1e-05 | < 1e-05 |  | < 1e-05 |
| G40U A48G G59U | < 1e-05 | < 1e-05 |  | < 1e-05 | < 1e-05 |
| G13C A39U G59U | < 1e-05 |  |  |  |  |
| C16A U31C A42G G44U C70G | < 1e-05 |  |  |  |  |
| C16A G43C A48G C67U | < 1e-05 | < 1e-05 |  |  |  |
| G35U C50U C67G | 0.000272 ± 0.0001 |  |  |  |  |
| U30A G38A U65C C70G | < 1e-05 | < 1e-05 | < 1e-05 |  |  |
| G13C U57C | < 1e-05 |  | < 1e-05 |  | < 1e-05 |
| C8G C71A | < 1e-05 |  | < 1e-05 | < 1e-05 | < 1e-05 |
| C8A G29C G35A C67G | < 1e-05 |  |  |  |  |
| G38U C50A C67G | 8.67e-05 ± 3.1e-05 | 0.000115 ± 3.2e-05 |  |  |  |
| A6U A52C | < 1e-05 | < 1e-05 | < 1e-05 | < 1e-05 | < 1e-05 |
| G9A G38C | < 1e-05 |  | < 1e-05 |  | < 1e-05 |
| G41C C58U G59C | < 1e-05 |  |  |  |  |
| G7C U30G G35U G37U U57C C71G | < 1e-05 | < 1e-05 |  |  |  |
| U2A A3U C50A | < 1e-05 | 3.38e-05 ± 1.2e-05 |  |  |  |
| C11U U45G C50A | < 1e-05 |  |  |  |  |

| Variant | self-cleavage kobs at 40 uM GlcN6P [1] [s⁻¹] | self-cleavage kobs at 10000 uM GlcN6P [2] [s⁻¹] | self-cleavage kobs at 640 uM GlcN6P [3] [s⁻¹] | self-cleavage kobs at 2500 uM GlcN6P [4] [s⁻¹] | self-cleavage kobs at 160 uM GlcN6P [5] [s⁻¹] |
| --- | --- | --- | --- | --- | --- |
| A36C U65A | < 1e-05 |  | < 1e-05 | < 1e-05 |  |
| U30G A36G U54G | < 1e-05 | < 1e-05 |  |  |  |
| A36U U47G C70G | 6.62e-05 ± 2.4e-05 | 4.91e-05 ± 1.4e-05 |  |  |  |
| G35C U45C C67G C68A | 0.00152 ± 0.00042 | 0.000566 ± 0.00018 |  |  |  |
| C34G G41C | < 1e-05 | < 1e-05 |  | < 1e-05 | < 1e-05 |
| G29U G35U C70U | < 1e-05 |  |  | < 1e-05 |  |
| A48U G63U | < 1e-05 | < 1e-05 | < 1e-05 | < 1e-05 | < 1e-05 |
| G59A G63C | < 1e-05 |  | < 1e-05 | < 1e-05 | < 1e-05 |
| G41A C61U | < 1e-05 | < 1e-05 | < 1e-05 |  | < 1e-05 |
| C8G C50G C67A | 0.000144 ± 2.5e-05 | 0.000113 ± 1.8e-05 |  |  |  |
| A33U G37C U45C A64C | < 1e-05 | < 1e-05 |  |  |  |
| C34G C50G G59A C67G | 3.78e-05 ± 1.8e-05 |  |  | 0.000115 ± 2.3e-05 | 0.000158 ± 3.7e-05 |
| G7U G37C C61A C68G C70U | 0.000181 ± 5.8e-05 | 9.36e-05 ± 2.7e-05 |  |  |  |
| A15U G29A G43A | < 1e-05 | < 1e-05 |  |  |  |
| G29C A36U | < 1e-05 |  | < 1e-05 |  |  |
| G44A G63C | < 1e-05 | < 1e-05 | < 1e-05 | < 1e-05 |  |
| A48G U69A | < 1e-05 |  |  |  |  |
| A14U A52C C71G | < 1e-05 |  | < 1e-05 |  |  |
| G9U U56G C71A | < 1e-05 |  |  |  |  |
| G7U G35U | < 1e-05 | < 1e-05 |  | < 1e-05 | < 1e-05 |
| A52G U65A U69G C70U | 5.09e-05 ± 1.9e-05 | 3.34e-05 ± 1.4e-05 |  |  |  |
| C10A U30G | < 1e-05 |  |  |  | < 1e-05 |
| A6C U45C G63A | < 1e-05 |  |  | < 1e-05 |  |
| A42C G62U | < 1e-05 | < 1e-05 | < 1e-05 | < 1e-05 |  |
| A14C G29A C61G | < 1e-05 | < 1e-05 |  |  |  |
| C8A G29U C50U G51U C68G | 6.11e-05 ± 2.7e-05 |  |  |  |  |
| G32A C67G C70U | < 1e-05 |  |  |  |  |
